Measurements as given in US20240270846A1 (published 2024).

The binders below were run against T1, CD3 epsilon homodimer protein (UniProt P07766 23-126) (assay: SPR (Biacore T200), CD3e homodimer on CM4 chip, antibody as analyte; KD ratio vs unaltered GLS3000;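 further: CD3 epsilon homodimer amine-coupled to the sensor surface, antibodies injected as analyte at 25 °C with HBS-EP+ running buffer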).
T1 construct: also called CD3 (CD3 epsilon)
T1 sequence (P07766 23-126): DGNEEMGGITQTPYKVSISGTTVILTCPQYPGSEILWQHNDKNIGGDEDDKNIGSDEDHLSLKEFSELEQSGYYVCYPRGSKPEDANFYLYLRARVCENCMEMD

Row | KD ratio to GLS3000 [ratio] | Binder
1 | 1.04 | CE115HA000/GLS3000 H34V one-arm antibody (antibody, human IgG1, kappa, L234A L235A, N297A, name in Kabat numbering, one-arm IgG1) heavy: QVQLVESGGGVVQPGRSLRLSCAASGFTFSNAWMHWVRQAPGKGLEWVAQIKAKSNNYATYYAESVKGRFTISRDDSKNSLYLQMNSLKTEDTAVYYCRYVHYGAYYGVDAWGQGTTVTVSSASTKGPSVFPLAPSSKSTSGGTAALGCLVKDYFPEPVTVSWNSGALTSGVHTFPAVLQSSGLYSLSSVVTVPSSSLGTQTYICNVNHKPSNTKVDKKVEPKSCDKTHTCPPCPAPEAAGGPSVFLFPPKPKDTLMISRTPEVTCVVVDVSHEDPEVKFNWYVDGVEVHNAKTKPREEQYASTYRVVSVLTVLHQDWLNGKEYKCKVSNKALPAPIEKTISKAKGQPREPQVYTLPPSRCELTKNQVSLSCAVKGFYPSDIAVEWESNGQPENNYKTTPPVLDSDGSFFLVSKLTVDKSRWQQGNVFSCSVMHEALHNHYTQKSLSLSPDYKDDDDK EPKSSDKTHTCPPCPAPELLGGPSVFLFPPKPKDTLMISRTPEVTCVVVDVSHEDPEVKFNWYVDGVEVHNAKTKPREEQYNSTYRVVSVLTVLHQDWLNGKEYKCKVSNKALPAPIEKTISKAKGQPREPQVCTLPPSRDELTKNQVSLWCLVKGFYPSDIAVEWESNGQPENNYKTTPPVLDSDGSFFLYSKLTVDKSRWQQGNVFSCSVMHEALHNRYTQKSLSLSP light: DIVMTQSPLSLPVTPGEPASISCRSSQSLVHSNRNTYLVWYQQKPGQAPRLLIYKVSNRFSGVPDRFSGSGSGTDFTLKISRVEAEDVGVYYCGQGTQVPYTFGQGTKLEIKRTVAAPSVFIFPPSDEQLKSGTASVVCLLNNFYPREAKVQWKVDNALQSGNSQESVTEQDSKDSTYSLSSTLTLSKADYEKHKVYACEVTHQGLSSPVTKSFNRGEC
2 | 2.44 | CE115HA000/GLS3000 H34Y one-arm antibody (antibody, human IgG1, kappa, L234A L235A, N297A, name in Kabat numbering, one-arm IgG1) heavy: QVQLVESGGGVVQPGRSLRLSCAASGFTFSNAWMHWVRQAPGKGLEWVAQIKAKSNNYATYYAESVKGRFTISRDDSKNSLYLQMNSLKTEDTAVYYCRYVHYGAYYGVDAWGQGTTVTVSSASTKGPSVFPLAPSSKSTSGGTAALGCLVKDYFPEPVTVSWNSGALTSGVHTFPAVLQSSGLYSLSSVVTVPSSSLGTQTYICNVNHKPSNTKVDKKVEPKSCDKTHTCPPCPAPEAAGGPSVFLFPPKPKDTLMISRTPEVTCVVVDVSHEDPEVKFNWYVDGVEVHNAKTKPREEQYASTYRVVSVLTVLHQDWLNGKEYKCKVSNKALPAPIEKTISKAKGQPREPQVYTLPPSRCELTKNQVSLSCAVKGFYPSDIAVEWESNGQPENNYKTTPPVLDSDGSFFLVSKLTVDKSRWQQGNVFSCSVMHEALHNHYTQKSLSLSPDYKDDDDK EPKSSDKTHTCPPCPAPELLGGPSVFLFPPKPKDTLMISRTPEVTCVVVDVSHEDPEVKFNWYVDGVEVHNAKTKPREEQYNSTYRVVSVLTVLHQDWLNGKEYKCKVSNKALPAPIEKTISKAKGQPREPQVCTLPPSRDELTKNQVSLWCLVKGFYPSDIAVEWESNGQPENNYKTTPPVLDSDGSFFLYSKLTVDKSRWQQGNVFSCSVMHEALHNRYTQKSLSLSP light: DIVMTQSPLSLPVTPGEPASISCRSSQSLVHSNRNTYLYWYQQKPGQAPRLLIYKVSNRFSGVPDRFSGSGSGTDFTLKISRVEAEDVGVYYCGQGTQVPYTFGQGTKLEIKRTVAAPSVFIFPPSDEQLKSGTASVVCLLNNFYPREAKVQWKVDNALQSGNSQESVTEQDSKDSTYSLSSTLTLSKADYEKHKVYACEVTHQGLSSPVTKSFNRGEC
3 | 42.4 | CE115HA000/GLS3000 K50G one-arm antibody (antibody, human IgG1, kappa, L234A L235A, N297A, name in Kabat numbering, one-arm IgG1) heavy: QVQLVESGGGVVQPGRSLRLSCAASGFTFSNAWMHWVRQAPGKGLEWVAQIKAKSNNYATYYAESVKGRFTISRDDSKNSLYLQMNSLKTEDTAVYYCRYVHYGAYYGVDAWGQGTTVTVSSASTKGPSVFPLAPSSKSTSGGTAALGCLVKDYFPEPVTVSWNSGALTSGVHTFPAVLQSSGLYSLSSVVTVPSSSLGTQTYICNVNHKPSNTKVDKKVEPKSCDKTHTCPPCPAPEAAGGPSVFLFPPKPKDTLMISRTPEVTCVVVDVSHEDPEVKFNWYVDGVEVHNAKTKPREEQYASTYRVVSVLTVLHQDWLNGKEYKCKVSNKALPAPIEKTISKAKGQPREPQVYTLPPSRCELTKNQVSLSCAVKGFYPSDIAVEWESNGQPENNYKTTPPVLDSDGSFFLVSKLTVDKSRWQQGNVFSCSVMHEALHNHYTQKSLSLSPDYKDDDDK EPKSSDKTHTCPPCPAPELLGGPSVFLFPPKPKDTLMISRTPEVTCVVVDVSHEDPEVKFNWYVDGVEVHNAKTKPREEQYNSTYRVVSVLTVLHQDWLNGKEYKCKVSNKALPAPIEKTISKAKGQPREPQVCTLPPSRDELTKNQVSLWCLVKGFYPSDIAVEWESNGQPENNYKTTPPVLDSDGSFFLYSKLTVDKSRWQQGNVFSCSVMHEALHNRYTQKSLSLSP light: DIVMTQSPLSLPVTPGEPASISCRSSQSLVHSNRNTYLHWYQQKPGQAPRLLIYGVSNRFSGVPDRFSGSGSGTDFTLKISRVEAEDVGVYYCGQGTQVPYTFGQGTKLEIKRTVAAPSVFIFPPSDEQLKSGTASVVCLLNNFYPREAKVQWKVDNALQSGNSQESVTEQDSKDSTYSLSSTLTLSKADYEKHKVYACEVTHQGLSSPVTKSFNRGEC
4 | 114 | CE115HA000/GLS3000 K50D one-arm antibody (antibody, human IgG1, kappa, L234A L235A, N297A, name in Kabat numbering, one-arm IgG1) heavy: QVQLVESGGGVVQPGRSLRLSCAASGFTFSNAWMHWVRQAPGKGLEWVAQIKAKSNNYATYYAESVKGRFTISRDDSKNSLYLQMNSLKTEDTAVYYCRYVHYGAYYGVDAWGQGTTVTVSSASTKGPSVFPLAPSSKSTSGGTAALGCLVKDYFPEPVTVSWNSGALTSGVHTFPAVLQSSGLYSLSSVVTVPSSSLGTQTYICNVNHKPSNTKVDKKVEPKSCDKTHTCPPCPAPEAAGGPSVFLFPPKPKDTLMISRTPEVTCVVVDVSHEDPEVKFNWYVDGVEVHNAKTKPREEQYASTYRVVSVLTVLHQDWLNGKEYKCKVSNKALPAPIEKTISKAKGQPREPQVYTLPPSRCELTKNQVSLSCAVKGFYPSDIAVEWESNGQPENNYKTTPPVLDSDGSFFLVSKLTVDKSRWQQGNVFSCSVMHEALHNHYTQKSLSLSPDYKDDDDK EPKSSDKTHTCPPCPAPELLGGPSVFLFPPKPKDTLMISRTPEVTCVVVDVSHEDPEVKFNWYVDGVEVHNAKTKPREEQYNSTYRVVSVLTVLHQDWLNGKEYKCKVSNKALPAPIEKTISKAKGQPREPQVCTLPPSRDELTKNQVSLWCLVKGFYPSDIAVEWESNGQPENNYKTTPPVLDSDGSFFLYSKLTVDKSRWQQGNVFSCSVMHEALHNRYTQKSLSLSP light: DIVMTQSPLSLPVTPGEPASISCRSSQSLVHSNRNTYLHWYQQKPGQAPRLLIYDVSNRFSGVPDRFSGSGSGTDFTLKISRVEAEDVGVYYCGQGTQVPYTFGQGTKLEIKRTVAAPSVFIFPPSDEQLKSGTASVVCLLNNFYPREAKVQWKVDNALQSGNSQESVTEQDSKDSTYSLSSTLTLSKADYEKHKVYACEVTHQGLSSPVTKSFNRGEC
5 | 8.45 | CE115HA000/GLS3000 H34W one-arm antibody (antibody, human IgG1, kappa, L234A L235A, N297A, name in Kabat numbering, one-arm IgG1) heavy: QVQLVESGGGVVQPGRSLRLSCAASGFTFSNAWMHWVRQAPGKGLEWVAQIKAKSNNYATYYAESVKGRFTISRDDSKNSLYLQMNSLKTEDTAVYYCRYVHYGAYYGVDAWGQGTTVTVSSASTKGPSVFPLAPSSKSTSGGTAALGCLVKDYFPEPVTVSWNSGALTSGVHTFPAVLQSSGLYSLSSVVTVPSSSLGTQTYICNVNHKPSNTKVDKKVEPKSCDKTHTCPPCPAPEAAGGPSVFLFPPKPKDTLMISRTPEVTCVVVDVSHEDPEVKFNWYVDGVEVHNAKTKPREEQYASTYRVVSVLTVLHQDWLNGKEYKCKVSNKALPAPIEKTISKAKGQPREPQVYTLPPSRCELTKNQVSLSCAVKGFYPSDIAVEWESNGQPENNYKTTPPVLDSDGSFFLVSKLTVDKSRWQQGNVFSCSVMHEALHNHYTQKSLSLSPDYKDDDDK EPKSSDKTHTCPPCPAPELLGGPSVFLFPPKPKDTLMISRTPEVTCVVVDVSHEDPEVKFNWYVDGVEVHNAKTKPREEQYNSTYRVVSVLTVLHQDWLNGKEYKCKVSNKALPAPIEKTISKAKGQPREPQVCTLPPSRDELTKNQVSLWCLVKGFYPSDIAVEWESNGQPENNYKTTPPVLDSDGSFFLYSKLTVDKSRWQQGNVFSCSVMHEALHNRYTQKSLSLSP light: DIVMTQSPLSLPVTPGEPASISCRSSQSLVHSNRNTYLWWYQQKPGQAPRLLIYKVSNRFSGVPDRFSGSGSGTDFTLKISRVEAEDVGVYYCGQGTQVPYTFGQGTKLEIKRTVAAPSVFIFPPSDEQLKSGTASVVCLLNNFYPREAKVQWKVDNALQSGNSQESVTEQDSKDSTYSLSSTLTLSKADYEKHKVYACEVTHQGLSSPVTKSFNRGEC
6 | 57.2 | CE115HA000/GLS3000 K50E one-arm antibody (antibody, human IgG1, kappa, L234A L235A, N297A, name in Kabat numbering, one-arm IgG1) heavy: QVQLVESGGGVVQPGRSLRLSCAASGFTFSNAWMHWVRQAPGKGLEWVAQIKAKSNNYATYYAESVKGRFTISRDDSKNSLYLQMNSLKTEDTAVYYCRYVHYGAYYGVDAWGQGTTVTVSSASTKGPSVFPLAPSSKSTSGGTAALGCLVKDYFPEPVTVSWNSGALTSGVHTFPAVLQSSGLYSLSSVVTVPSSSLGTQTYICNVNHKPSNTKVDKKVEPKSCDKTHTCPPCPAPEAAGGPSVFLFPPKPKDTLMISRTPEVTCVVVDVSHEDPEVKFNWYVDGVEVHNAKTKPREEQYASTYRVVSVLTVLHQDWLNGKEYKCKVSNKALPAPIEKTISKAKGQPREPQVYTLPPSRCELTKNQVSLSCAVKGFYPSDIAVEWESNGQPENNYKTTPPVLDSDGSFFLVSKLTVDKSRWQQGNVFSCSVMHEALHNHYTQKSLSLSPDYKDDDDK EPKSSDKTHTCPPCPAPELLGGPSVFLFPPKPKDTLMISRTPEVTCVVVDVSHEDPEVKFNWYVDGVEVHNAKTKPREEQYNSTYRVVSVLTVLHQDWLNGKEYKCKVSNKALPAPIEKTISKAKGQPREPQVCTLPPSRDELTKNQVSLWCLVKGFYPSDIAVEWESNGQPENNYKTTPPVLDSDGSFFLYSKLTVDKSRWQQGNVFSCSVMHEALHNRYTQKSLSLSP light: DIVMTQSPLSLPVTPGEPASISCRSSQSLVHSNRNTYLHWYQQKPGQAPRLLIYEVSNRFSGVPDRFSGSGSGTDFTLKISRVEAEDVGVYYCGQGTQVPYTFGQGTKLEIKRTVAAPSVFIFPPSDEQLKSGTASVVCLLNNFYPREAKVQWKVDNALQSGNSQESVTEQDSKDSTYSLSSTLTLSKADYEKHKVYACEVTHQGLSSPVTKSFNRGEC
